Test results from US20240132603A1 (HARBOUR BIOMED US, published 2024).
Where two headings read alike, the source gives them in different places. One block for each binder: values may come before it.

Legend:
[1] = biological target: T1, cynomolgus monkey CCR8 (cynomolgus monkey, UniProt G7NYJ2 1-355); test: FACS, CHO-K1-CynoCCR8 cells
T1 construct: whole, on cells; also called CynoCCR8
Procedure: (§1) Cells overexpressing cynomolgus monkey CCR8, CHO-K1-CynoCCR8, were digested with pancreatin, counted and resuspended to a cell density of 1E6 cells/mL. The cell suspension was added to a 96-well V-bottom plate at 100 μL/well and centrifuged at 300 g for 5 min, and the supernatant was discarded. The anti-CCR8 antibodies provided herein was used as a primary antibody and diluted in a 5-fold gradient with an FACS buffer (DPBS containing 2% FBS) from 200 nM. The diluted primary antibody was added at 100 μL/well to resuspend the cells, and the mixture was incubated at 4° C. for 1 h. The plate was washed twice with DPBS and centrifuged at 300×g for 5 min, and the supernatant was discarded. The secondary antibody diluted in a 1:1000 ratio with an FACS buffer was added at 100 μL/well to suspend the cells, and the mixture was incubated at 4° C. for 40 min. The plate was washed twice with DPBS and centrifuged at 300×g for 5 min, and the supernatant was discarded. DPBS was added at 200 μL/well to suspend the cells, and the mixture was loaded on an FACS machine for analysis.

[2] = biological target: T2, human CCR8 (human, UniProt P51685 1-355); test: FACS, HEK293-hCCR8 cells
T2 construct: whole, on cells; construct used for the overexpressing cell lines is not described; also called hCCR8
T2 sequence (P51685 whole entry): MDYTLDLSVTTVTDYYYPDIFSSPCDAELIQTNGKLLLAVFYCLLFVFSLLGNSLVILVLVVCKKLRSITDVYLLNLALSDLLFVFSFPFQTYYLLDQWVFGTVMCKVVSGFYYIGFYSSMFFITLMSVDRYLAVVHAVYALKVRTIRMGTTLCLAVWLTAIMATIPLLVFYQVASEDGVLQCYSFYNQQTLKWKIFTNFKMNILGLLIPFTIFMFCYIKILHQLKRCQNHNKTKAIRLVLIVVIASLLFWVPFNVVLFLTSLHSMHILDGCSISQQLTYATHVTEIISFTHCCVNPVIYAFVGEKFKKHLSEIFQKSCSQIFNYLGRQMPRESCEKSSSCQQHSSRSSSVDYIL
Procedure: as §1, with “human CCR8” for “cynomolgus monkey CCR8, CHO-K1-CynoCCR8,”

[3] = biological target: T2, human CCR8; test: FACS, CHO-K1-hCCR8 cells
Procedure: as §1, with “human CCR8” for “cynomolgus monkey CCR8, CHO-K1-CynoCCR8,”

[4] = biological target: T1, cynomolgus monkey CCR8; test: FACS, CHO-K1-CynoCCR8 cells; remark: listed apart in the source
Procedure: as §1

[5] = biological target: T2, human CCR8; test: FACS, CHO-K1-hCCR8 cells, Fab
Procedure: as §1, with “human CCR8” for “cynomolgus monkey CCR8, CHO-K1-CynoCCR8,”

[6] = biological target: T2, human CCR8; test: FACS, CHO-K1-hCCR8 cells; remark: listed apart in the source
Procedure: as §1, with “human CCR8” for “cynomolgus monkey CCR8, CHO-K1-CynoCCR8,”

[7] = biological target: T2, human CCR8; test: FACS, CHO-K1-hCCR8 cells; remark: listed apart in the source
Procedure: as §1, with “human CCR8” for “cynomolgus monkey CCR8, CHO-K1-CynoCCR8,”

[8] = biological target: T1, cynomolgus monkey CCR8; test: FACS, CHO-K1-CynoCCR8 cells; remark: listed apart in the source
Procedure: as §1

T1 sequence (G7NYJ2 entry or part of it): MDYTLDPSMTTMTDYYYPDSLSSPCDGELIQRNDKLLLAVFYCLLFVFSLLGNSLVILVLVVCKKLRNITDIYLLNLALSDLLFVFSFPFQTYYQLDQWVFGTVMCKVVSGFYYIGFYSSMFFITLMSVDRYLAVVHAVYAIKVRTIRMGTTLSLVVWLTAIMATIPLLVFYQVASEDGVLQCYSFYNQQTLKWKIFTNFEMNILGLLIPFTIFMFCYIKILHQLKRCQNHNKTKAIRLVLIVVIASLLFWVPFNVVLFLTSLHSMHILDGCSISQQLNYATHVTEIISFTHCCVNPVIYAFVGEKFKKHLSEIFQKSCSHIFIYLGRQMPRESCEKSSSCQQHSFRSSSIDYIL

EC50 [1]: 3.42 nM | EC50 [2]: 1.22 nM
B1: PR004249 (antibody, human IgG1, kappa)
heavy: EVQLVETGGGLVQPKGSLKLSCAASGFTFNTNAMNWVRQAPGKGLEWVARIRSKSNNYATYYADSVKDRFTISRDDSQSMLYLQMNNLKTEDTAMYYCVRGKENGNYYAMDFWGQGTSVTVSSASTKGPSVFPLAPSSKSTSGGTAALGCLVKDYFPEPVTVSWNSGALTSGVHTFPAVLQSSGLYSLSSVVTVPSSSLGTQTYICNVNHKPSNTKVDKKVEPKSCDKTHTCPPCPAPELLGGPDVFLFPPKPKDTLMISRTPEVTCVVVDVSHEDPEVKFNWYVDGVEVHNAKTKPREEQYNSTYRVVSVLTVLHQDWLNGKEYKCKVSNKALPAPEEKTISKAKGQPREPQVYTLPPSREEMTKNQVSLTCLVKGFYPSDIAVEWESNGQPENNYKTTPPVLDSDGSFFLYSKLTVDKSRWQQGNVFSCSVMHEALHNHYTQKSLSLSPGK
light: DIVMTQAAPSVPVTPGESVSISCRSSKSLLHSNGNTYLYWFLQRPGQSPQLLIYRMSNLASGVPDRFSGSGSGTAFTLRISRVEAEDVGVYYCMQHLEYPLTFGAGTKLELKRTVAAPSVFIFPPSDEQLKSGTASVVCLLNNFYPREAKVQWKVDNALQSGNSQESVTEQDSKDSTYSLSSTLTLSKADYEKHKVYACEVTHQGLSSPVTKSFNRGEC
notes: PR004122 with S239D and I332E (DE) in the IgG1 constant region

EC50 [1]: 3.32 nM | EC50 [2]: 0.98 nM
B2: PR004252 (antibody, human IgG1, kappa)
heavy: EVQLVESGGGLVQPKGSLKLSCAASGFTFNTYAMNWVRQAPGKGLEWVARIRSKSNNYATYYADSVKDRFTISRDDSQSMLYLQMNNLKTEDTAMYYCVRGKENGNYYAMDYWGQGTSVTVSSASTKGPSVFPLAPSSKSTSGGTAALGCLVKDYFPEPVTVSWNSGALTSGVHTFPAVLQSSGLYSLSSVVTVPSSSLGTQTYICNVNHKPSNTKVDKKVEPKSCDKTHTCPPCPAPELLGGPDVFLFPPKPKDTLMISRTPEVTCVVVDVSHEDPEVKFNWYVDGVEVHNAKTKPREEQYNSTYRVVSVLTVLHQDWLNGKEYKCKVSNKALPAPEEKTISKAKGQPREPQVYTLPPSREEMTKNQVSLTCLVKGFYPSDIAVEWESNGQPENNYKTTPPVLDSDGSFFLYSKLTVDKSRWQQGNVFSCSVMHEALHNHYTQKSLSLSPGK
light: DIVMTQAAPSVPVTPGESVSISCRSNKSLLHSNGNTYLYWFLQRPGQSPQLLIYRMSNLASGVPDRFSGSGSGTAFTLRISRVEAEDVGVYYCMQHLEYPLTFGAGTKLEIKRTVAAPSVFIFPPSDEQLKSGTASVVCLLNNFYPREAKVQWKVDNALQSGNSQESVTEQDSKDSTYSLSSTLTLSKADYEKHKVYACEVTHQGLSSPVTKSFNRGEC
notes: PR004131 with S239D and I332E (DE) in the IgG1 constant region

EC50 [1]: 8.26 nM | EC50 [2]: 3.69 nM
B3: PR004251 (antibody, human IgG1, kappa)
heavy: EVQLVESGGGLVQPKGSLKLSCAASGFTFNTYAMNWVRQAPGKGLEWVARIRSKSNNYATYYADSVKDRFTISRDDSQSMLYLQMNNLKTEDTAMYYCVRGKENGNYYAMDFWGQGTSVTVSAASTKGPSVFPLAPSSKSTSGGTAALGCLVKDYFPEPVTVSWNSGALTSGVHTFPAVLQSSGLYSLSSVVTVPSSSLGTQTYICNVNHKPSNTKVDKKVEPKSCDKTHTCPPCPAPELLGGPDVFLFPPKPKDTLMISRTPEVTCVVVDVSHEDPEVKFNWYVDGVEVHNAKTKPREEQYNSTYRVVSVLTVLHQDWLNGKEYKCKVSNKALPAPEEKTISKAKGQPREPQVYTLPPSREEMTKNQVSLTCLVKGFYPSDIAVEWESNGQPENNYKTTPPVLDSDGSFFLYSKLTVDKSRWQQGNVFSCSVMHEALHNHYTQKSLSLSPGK
light: DIVMTQAAPSVPVTPGESVSISCRSSKSLLHSNGKIYLYWFLQRPGQSPQLLIYRMSNLASGVPDRFSGSGSGTAFTLRISRVEAEDVGVYYCMQHLEYPLTFGAGTKLEIKRTVAAPSVFIFPPSDEQLKSGTASVVCLLNNFYPREAKVQWKVDNALQSGNSQESVTEQDSKDSTYSLSSTLTLSKADYEKHKVYACEVTHQGLSSPVTKSFNRGEC
notes: PR004128 with S239D and I332E (DE) in the IgG1 constant region

EC50 [3]: 0.17 nM | EC50 [4]: 4.79 nM
B4: PR004524 (antibody, human IgG1, kappa, V domains shown)
VH: EVQLVESGGGLVQPGGSLKLSCAASGFTFNTYAMNWVRQASGKGLEWVGRIRSKSNNYATYYADSVKDRFTISRDDSKSTLYLQMNSLKTEDTAVYYCVRGKENGNYYAMDFWGQGTTVTVSS
VL: DIVMTQSPLSLPVTPGEPASISCRSSKSLLHSNGNTYLYWFLQKPGQSPQLLIYRMSNLASGVPDRFSGSGSGTDFTLKISRVEAEDVGVYYCMQHLEYPLTFGQGTKLEIKR
notes: humanized variant of PR004128, IgG1 with DE mutation

EC50 [5]: 1.56 nM
B5: PR005750 (Fab, V domains shown)
VH: EVQLVESGGGLVKPGGSLRLSCAASGFTFSTYAMNWVRQAPGKGLEWVGRIRSKSNNYATYYADSVKDRFTISRDDSKSTLYLQMNSLKTEDTAVYYCVRGKENANYYAMDFWGQGTTVTVSS
VL: DIVMTQSPLSLPVTLGQPASISCRSSKSLLHSNAKIYLYWFQQRPGQSPRLLIYRMSNLASGVPDRFSGSGSGTDFTLKISRVEAEDVGVYYCMQHLEYPLTFGQGTKLEIKR
notes: Fab form of the same variable region as PR004666

EC50 [6]: 0.279 nM
B6: PR004667 (antibody, human IgG1, kappa, V domains shown)
VH: EVQLVESGGGLVKPGGSLRLSCAASGFTFSTYAMNWVRQAPGKGLEWVGRIRSKSNNYATYYADSVKDRFTISRDDSKSTLYLQMNSLKTEDTAVYYCVRGKEQGNYYAMDFWGQGTTVTVSS
VL: DIVMTQSPLSLPVTLGQPASISCRSSKSLLHSNAKIYLYWFQQRPGQSPRLLIYRMSNLASGVPDRFSGSGSGTDFTLKISRVEAEDVGVYYCMQHLEYPLTFGQGTKLEIKR
notes: PTM site-removed humanized variant of PR004128, IgG1 with DE mutation

EC50 [3]: 0.73 nM | EC50 [4]: 7.33 nM
B7: PR004527 (antibody, human IgG1, kappa, V domains shown)
VH: EVQLVESGGGLVQPGGSLKLSCAASGFTFNTYAMNWVRQASGKGLEWVGRIRSKSNNYATYYADSVKDRFTISRDDSKSTLYLQMNSLKTEDTAVYYCVRGKENGNYYAMDFWGQGTTVTVSS
VL: DIVMTQSPLSLPVTLGQPASISCRSSKSLLHSNGKIYLYWFQQRPGQSPRLLIYRMSNLASGVPDRFSGSGSGTDFTLKISRVEAEDVGVYYCMQHLEYPLTFGQGTKLEIKR
notes: as for B4

EC50 [6]: 0.49 nM
B8: PR004660 (antibody, human IgG1, kappa, V domains shown)
VH: EVQLVESGGGLVQPGGSLRLSCAASGFTFSTYAMNWVRQAPGKGLEWVSRIRSKSNNYATYYADSVKDRFTISRDDSKSTLYLQMNSLRAEDTAVYYCVRGKENANYYAMDFWGQGTTVTVSS
VL: DIVMTQSPLSLPVTPGEPASISCRSSKSLLHSNGKIYLYWFLQKPGQSPQLLIYRMSNLASGVPDRFSGSGSGTDFTLKISRVEAEDVGVYYCMQHLEYPLTFGQGTKLEIKR
notes: as for B6

EC50 [6]: 0.365 nM
B9: PR004664 (antibody, human IgG1, kappa, V domains shown)
VH: EVQLVESGGGLVKPGGSLRLSCAASGFTFSTYAMNWVRQAPGKGLEWVGRIRSKSNNYATYYADSVKDRFTISRDDSKSTLYLQMNSLKTEDTAVYYCVRGKENANYYAMDFWGQGTTVTVSS
VL: DIVMTQSPLSLPVTLGQPASISCRSSKSLLHSNGKIYLYWFQQRPGQSPRLLIYRMSNLASGVPDRFSGSGSGTDFTLKISRVEAEDVGVYYCMQHLEYPLTFGQGTKLEIKR
notes: as for B6

EC50 [6]: 0.286 nM
B10: PR004663 (antibody, human IgG1, kappa, V domains shown)
VH: EVQLVESGGGLVQPGGSLRLSCAASGFTFSTYAMNWVRQAPGKGLEWVSRIRSKSNNYATYYADSVKDRFTISRDDSKSTLYLQMNSLRAEDTAVYYCVRGKEQGNYYAMDFWGQGTTVTVSS
VL: DIVMTQSPLSLPVTPGEPASISCRSSKSLLHSNAKIYLYWFLQKPGQSPQLLIYRMSNLASGVPDRFSGSGSGTDFTLKISRVEAEDVGVYYCMQHLEYPLTFGQGTKLEIKR
notes: as for B6

EC50 [3]: 0.85 nM | EC50 [4]: 6.21 nM
B11: PR004525 (antibody, human IgG1, kappa)
heavy: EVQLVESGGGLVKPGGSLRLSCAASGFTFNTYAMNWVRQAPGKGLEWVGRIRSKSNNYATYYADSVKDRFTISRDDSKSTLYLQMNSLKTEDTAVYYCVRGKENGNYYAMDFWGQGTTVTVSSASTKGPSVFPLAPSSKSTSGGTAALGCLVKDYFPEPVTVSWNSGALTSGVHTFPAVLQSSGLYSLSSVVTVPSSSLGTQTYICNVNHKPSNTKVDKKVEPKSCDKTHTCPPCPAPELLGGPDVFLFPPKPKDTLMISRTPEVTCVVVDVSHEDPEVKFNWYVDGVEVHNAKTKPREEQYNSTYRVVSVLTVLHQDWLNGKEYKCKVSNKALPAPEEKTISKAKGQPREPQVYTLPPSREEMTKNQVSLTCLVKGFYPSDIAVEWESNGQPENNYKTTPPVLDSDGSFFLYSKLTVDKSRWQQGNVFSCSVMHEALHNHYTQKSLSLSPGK
light: DIVMTQSPLSLPVTLGQPASISCRSSKSLLHSNGKIYLYWFQQRPGQSPRLLIYRMSNLASGVPDRFSGSGSGTDFTLKISRVEAEDVGVYYCMQHLEYPLTFGQGTKLEIKRTVAAPSVFIFPPSDEQLKSGTASVVCLLNNFYPREAKVQWKVDNALQSGNSQESVTEQDSKDSTYSLSSTLTLSKADYEKHKVYACEVTHQGLSSPVTKSFNRGEC
notes: as for B4

EC50 [6]: 0.341 nM
B12: PR004665 (antibody, human IgG1, kappa, V domains shown)
VH: EVQLVESGGGLVKPGGSLRLSCAASGFTFSTYAMNWVRQAPGKGLEWVGRIRSKSNNYATYYADSVKDRFTISRDDSKSTLYLQMNSLKTEDTAVYYCVRGKEQGNYYAMDFWGQGTTVTVSS
VL: DIVMTQSPLSLPVTLGQPASISCRSSKSLLHSNGKIYLYWFQQRPGQSPRLLIYRMSNLASGVPDRFSGSGSGTDFTLKISRVEAEDVGVYYCMQHLEYPLTFGQGTKLEIKR
notes: as for B6

EC50 [7]: 0.44 nM | EC50 [6]: 0.466 nM | EC50 [8]: 0.37 nM
B13: PR004666 (antibody, human IgG1, kappa)
heavy: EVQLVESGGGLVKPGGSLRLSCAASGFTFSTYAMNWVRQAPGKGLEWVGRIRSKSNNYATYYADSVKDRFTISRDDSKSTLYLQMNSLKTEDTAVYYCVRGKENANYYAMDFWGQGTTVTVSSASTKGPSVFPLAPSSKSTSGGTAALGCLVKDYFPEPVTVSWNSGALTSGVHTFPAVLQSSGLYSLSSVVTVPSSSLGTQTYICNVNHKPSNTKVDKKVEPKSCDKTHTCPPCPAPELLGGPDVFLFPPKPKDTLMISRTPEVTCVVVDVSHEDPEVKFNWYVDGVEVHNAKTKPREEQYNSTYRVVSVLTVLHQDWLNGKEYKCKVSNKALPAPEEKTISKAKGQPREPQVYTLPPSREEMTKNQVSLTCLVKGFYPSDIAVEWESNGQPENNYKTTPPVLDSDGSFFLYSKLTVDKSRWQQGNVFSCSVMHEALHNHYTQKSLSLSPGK
light: DIVMTQSPLSLPVTLGQPASISCRSSKSLLHSNAKIYLYWFQQRPGQSPRLLIYRMSNLASGVPDRFSGSGSGTDFTLKISRVEAEDVGVYYCMQHLEYPLTFGQGTKLEIKRTVAAPSVFIFPPSDEQLKSGTASVVCLLNNFYPREAKVQWKVDNALQSGNSQESVTEQDSKDSTYSLSSTLTLSKADYEKHKVYACEVTHQGLSSPVTKSFNRGEC
notes: as for B6

EC50 [6]: 0.456 nM
B14: PR004661 (antibody, human IgG1, kappa, V domains shown)
VH: EVQLVESGGGLVQPGGSLRLSCAASGFTFSTYAMNWVRQAPGKGLEWVSRIRSKSNNYATYYADSVKDRFTISRDDSKSTLYLQMNSLRAEDTAVYYCVRGKEQGNYYAMDFWGQGTTVTVSS
VL: DIVMTQSPLSLPVTPGEPASISCRSSKSLLHSNGKIYLYWFLQKPGQSPQLLIYRMSNLASGVPDRFSGSGSGTDFTLKISRVEAEDVGVYYCMQHLEYPLTFGQGTKLEIKR
notes: as for B6

EC50 [6]: 0.681 nM
B15: PR004662 (antibody, human IgG1, kappa, V domains shown)
VH: EVQLVESGGGLVQPGGSLRLSCAASGFTFSTYAMNWVRQAPGKGLEWVSRIRSKSNNYATYYADSVKDRFTISRDDSKSTLYLQMNSLRAEDTAVYYCVRGKENANYYAMDFWGQGTTVTVSS
VL: DIVMTQSPLSLPVTPGEPASISCRSSKSLLHSNAKIYLYWFLQKPGQSPQLLIYRMSNLASGVPDRFSGSGSGTDFTLKISRVEAEDVGVYYCMQHLEYPLTFGQGTKLEIKR
notes: as for B6

EC50 [3]: 1.03 nM | EC50 [4]: 4.01 nM
B16: PR004526 (antibody, human IgG1, kappa, V domains shown)
VH: EVQLVESGGGLVQPGGSLRLSCAASGFTFNTYAMNWVRQAPGKGLEWVSRIRSKSNNYATYYADSVKDRFTISRDDSKSTLYLQMNSLRAEDTAVYYCVRGKENGNYYAMDFWGQGTTVTVSS
VL: DIVMTQSPLSLPVTLGQPASISCRSSKSLLHSNGKIYLYWFQQRPGQSPRLLIYRMSNLASGVPDRFSGSGSGTDFTLKISRVEAEDVGVYYCMQHLEYPLTFGQGTKLEIKR
notes: as for B4
